From the DeepSol protein solubility set

Assay: soluble on expression in E. coli; label from the status in PepcDB or PDB records

Sequence	soluble on expression in E. coli
MSLSEAGYPRKVMQHAEELHERILSFDSRITVPLDFGTTGNEVDKDGPGQLDLVKAGRGRLSGAALAIFGWPEMWNGPNAPHKPTPGFVDEARHQQEIRYKILTGMVRDFPNQVGIAYSPEDFRRLAMEGKFAIVMSMLNAYPLGDDLSQLDKWAARGVRMFGFSYVGNNDWADSSRPLPFFNDSPDALGGLSPLGKQAVERLNDLGVIIDVSQMSTKALEQVAALSRAPIVASHSAPRALVDIKRNLSDHEMQLIKDSGGVIQVVGFPAYLRPLSKPTLDKLDALRARFDLPPLEGLDYALMPGDPIITIWPEQRFGEYASALYGILEEEPKAGLKELVDAIDYTVKKVGIDHVGISSDFNDGGGVDGWKDVSEIRNVTAELITRGYSDADIAKLWGGNFLRAWGEVQNAPSRQPPPKGIITITTDPNSSSVDKLAAALEHHHHHH	soluble
MNKHQKPVLTGQRFKTRKRDEKEKFEPTVFRDTLVQGLNEAGDDLEAVAKFLDSTGSRLDYRRYADTLFDILVAGSMLAPGGTRIDDGDKTKMTNHCVFSANEDHETIRNYAQVFNKLIRRYKYLEKAFEDEMKKLLLFLKAFSEAEQTKLAMLSGILLGNGTLPATILTSLFTDSLVKEGIAASFAVKLFKAWMAEKDANSVTSSLRKANLDKRLLELFPVNRQSVDHFAKYFTDAGLKELSDFLRVQQSLGTRKELQKELQERLSQECPIKEVVLYVKEEMKRNDLPETAVIGLLWTCIMNAVEWNKKEELVAEQALKHLKQYAPLLAVFSSQGQSELVLLQKVQEYCYDNIHFMKAFQKIVVLFYKADVLSEEAILKWYKEAHAAKGKSVFLDQMKKFVEWLQNAEEESESEGEES	soluble
KIGERMLGTDPVTGESVVAKMGRYGAMVQKGRTDKENGIKAQFASLQPGQSIESITLEEALELFLLPKKLGQYEDADVMVAVGRFGPYIKHAGKFVGLPKDTEPLSVSLDDAIKYIADKREKEEKSLIKGFAEDPEMEIRTGRFGVYIKYKGKNYKVPKTVEDPEKLTLEECLKYVEEGETKPAKGKKKAPAKKTSAKKTAKK	not soluble
EGGEPCACPHALHRVCGSDGETYSNPCTLNCAKFNGKPELVKVHDGPCEPDEDEDVCQECDGDEYKPVCGSDDITYDNNCRLECASISSSPGVELKHEGPCRT	soluble
MGHHHHHHSHRIVILQGAAGIGKSTLARQVKEAWGRGQLYGDRFQHVFYFSCRELAQSKVVSLAELIGKDGTATPAPIRQILSRPERLLFILDGVDEPGWVLQEPSSELCLHWSQPQPADALLGSLLGKTILPEASFLITARTTALQNLIPSLEQARWVEVLGFSESSRKEYFYRYFT	not soluble
MEKVKKIVLIGASGFVGSALLNEALNRGFEVTAVVRHPEKIKIENEHLKVKKADVSSLDEVCEVCKGADAVISAFNPGWNNPDIYDETIKVYLTIIDGVKKAGVNRFLMVGGAGSLFIAPGLRLMDSGEVPENILPGVKALGEFYLNFLMKEKEIDWVFFSPAADMRPGVRTGRYRLGKDDMIVDIVGNSHISVEDYAAAMIDELEHPKHHQERFTIGYLEHHHHHH	soluble
MSIPFTRWPEEFARRYREKGYWQDLPLTDILTRHAASDSIAVIDGERQLSYRELNQAADNLACSLRRQGIKPGETALVQLGNVAELYITFFALLKLGVAPVLALFSHQRSELNAYASQIEPALLIADRQHALFSGDDFLNTFVTEHSSIRVVQLLNDSGEHNLQDAINHPAEDFTATPSPADEVAYFQLSGGTTGTPKLIPRTHNDYYYSVRRSVEICQFTQQTRYLCAIPAAHNYAMSSPGSLGVFLAGGTVVLAADPSATLCFPLIEKHQVNVTALVPPAVSLWLQALIEGESRAQLASLKLLQVGGARLSATLAARIPAEIGCQLQQVFGMAEGLVNYTRLDDSAEKIIHTQGYPMCPDDEVWVADAEGNPLPQGEVGRLMTRGPYTFRGYYKSPQHNASAFDANGFYCSGDLISIDPEGYITVQGREKDQINRGGEKIAAEEIENLLLRHPAVIYAALVSMEDELMGEKSCAYLVVKEPLRAVQVRRFLREQGIAEFKLPDRVECVDSLPLTAVGKVDKKQLRQWLASRASA	soluble
MSLNINKVFYHSSTNMNEVPDNSVDLIITSPPYFNIKDYAKNGTQDLQHSAQHVEDLGALEKYEDYLLGLLKVWLECYRALKPNGKLCINVPLMPMLKKVLNTHYNRHIFDLHADIQHSILHDLNNMLKNKPKMFLLDVYIWKRANPTKRLMFGSYPYPRNFYAQNTIEFIGVFVKDGKPKQPTEEQKEQSQLTQEEWVEFTKQIWEIPIPNKNDIAFGKHAALMPAELARRLIRLYSCVGDVVLDPFSGSGTTLREAKLLKRNFIGYELYENYKPLIEQKLGNLFDFEEGHHHHHH	soluble
MGSDKIHHHHHHMKIYCSKDSLITGVNTVQKAVSNKNTLPVLQGIMIRAEGQSLIFEATDLEIGIRCVVPAQVEKEGVVVLPSRLFSDLVCKLPDVLIELELQNDVINIHYNESDLSLRGYDPEEFPLLPDLFDAETFNLPVSIFKTMIKQTIFACSAEESRPVFTGCLLQIEDGSLRLIATDTHRLAYRIAEISNPEQIKFQGIIPAKTLGEIYRLLRDEDENLFIRFNQAQIVFQFGAVHLLSRLIEGQFPNYKQVIPQSCQTKVLLSARLFQDSVERASLLARDGSHTSIIKLSVDTERLSIDQTSELGKISEQMEVKKEGNDVKIAFNSKFLLDVLKIIDSEEIVFELSGSYSPGIIRPVDDPNYLYLALPVRTS	not soluble
MIRTVMDFKFVLRLLEANQFENEVVEYKKNNKDFIVLGKNISALSNTAALLGIDKAYIIFGIEDGTLNIVGTNFKPKQEKKGNEELESWLHKVLKPNIEFKIHEITEKEIRLVVFEIEATKISPIKFEEKAYIRIGSNRKELDKYPEKEKKLWQVLSGFSFENEIAKSNLNIQDIYDLLDYSKCFDMLDISYDNYSSDEYIIEKLIEHGLVKNLNDSFAITNLGAILFAKDLTKFKGLNRKRIRFIRYQGKNKIHTLEELEGRKGYAIGFQGLISYIMQYVPKNEVIENAIRKDTTLYPEIAIRELVANAIIHQDFTINGRNPMIEMYSDRIEITNNGKSLIDIKRLIDMPSKSRNDKLANLMRIMGICEERGSGVDKVIDSVEAYQLPAPDFINNEDYFQAILFSHMPLEDMTKQDRIRATYQHCCLKWASREAMTNASLRARFKIGDKQHSKASKIISDTLEAGLIKQQDPENKSTKHVKYVPFFV	not soluble
MSLVQLYVSDSVSRISFADGRVIVWSEELGESQYPIETLDGITLFGRPTMTTPFIVEMLKRERDIQLFTTDGHYQGRISTPDVSYAPRLRQQVHRTDDPAFCLSLSKRIVSRKILNQQALIRAHTSGQDVAESIRTMKHSLAWVDRSGSLAELNGFEGNAAKAYFTALGHLVPQEFAFQGRSTRPPLDAFNSMVSLGYSLLYKNIIGAIERHSLNAYIGFLHQDSRGHATLASDLMEVWRAPIIDDTVLRLIADGVVDTRAFSKNSDTGAVFATREATRSIARAFGNRIARTATYIKGDPHRYTFQYALDLQLQSLVRVIEAEGHHHHHH	not soluble
NGFQKEMRTRILGMVPHATISAAQPLDDWQTVANAALRHREVVGAAPFAELQGMLSYKGNMLPVLVNGIDPQEERKVSIVGEHIVQGSLDDLKPGEFGIVLGEITARRFHVNVGDKLTLIVPEATSAPGGITPRMQRFTIVALFKVGAELDNSLALIDIADAGQLLRLQPGQVPSVRLELKDLYQSPQVAAKVVKELGQGFRSSDWTRTQGSLFNAMKMEKT	not soluble
MSDQQQPPVYKIALGIEYDGSKYYGWQRQNEVRSVQEKLEKALSQVANEPITVFCAGRTDAGVHGTGQVVHFETTAQRKDAAWTLGVNANLPGDIAVRWVKAVPDDFHARFSATARRYRYIIYNHRLRPAVLSKGVTHFYEPLDAERMHRAAQCLLGENDFTSFRAVQCQSRTPWRNVMHINVTRHGPYVVVDIKANAFVHHMVRNIVGSLMEVGAHNQPESWIAELLAAKDRTLAAATAKAEGLYLVAVDYPDRYDLPKPPMGPLFLAD	soluble
MAHHHHHHMKPYVWPTSDEAPPPSGRRTFPRQFQVNHGTLNLFSPAVPESQQCNTRAAAGSFSITGQRGILHQRNHNKESTATREFPVNGLRRVSAPQRSETPHGIRHIRDAAGAQQHVQVVNITDAYKDPMQMGPRRTGVKCLPQKSESDDVSVALSFAGSRQQLSARVLAAPVGKPSRPSLYPIDYSDQERFAQAVRDHAQKRTRGLAEFYVQLVRDTVGSVTSSTPKPAIVPWSLDQEPTRRVLTLGRCRDQLVALTAMPISLSDLALLLWGAGNGEVANSDSLTSDCDKDASLPLNCRPVPFCDFAAAFGQNSSDVRLARMKV	not soluble
MDRIVEIEKYSFDETYETSLRPSNFDGYIGQESIKKNLNVFIAAAKKRNECLDHILFSGPAGLGKTTLANIISYEMSANIKTTAAPMIEKSGDLAAILTNLSEGDILFIDEIHRLSPAIEEVLYPAMEDYRLDIIIGSGPAAQTIKIDLPKFTLIGATTRAGMLSNPLRDRFGMQFRLEFYKDSELALILQKAALKLNKTCEEKAALEIAKRSRSTPRIALRLLKRVRDFADVNDEEIITEKRANEALNSLGVNELGFDAMDLRYLELLTAAKQKPIGLASIAAALSEDENTIEDVIEPYLLANGYIERTAKGRIASAKSYSALKLNYEKTLFEE	not soluble
GPLGSGGLFFNALKNCKENFTVLQTIRQQQSTLNGSWVALLQTRNTLNRAGIRYMMDQNNIGSGSTVAELMESASISLKQAEKNWADYEALPRDPRQSTAAAAEIKRNYDIYHNALAELIQLLGAGKINEFFDQPTQGYQDGFEKQYVAYMEQNDRLHDIAVSDNNASYSHHHHHH	soluble
LSLQSEIDSLCAVSHELLHLGLDGEPIYSDRFRQLNTDVYHRCEHLFGSHGRTLEEEASLCIALLTGYNATIYNHGDKEDKIQSVLNRSWDLLDTLPVSLLKCRLLVACYAEVFD	not soluble
MLRLRTPSRIHITLIDLNGSIGRVDGGVGLALEEPHIEIKAKESETFVLKGEPINRERFEIAAAKMAEYCGRGAEIEVVSDYDAHVGLGSGTQISLAVGRAFSELYGLNLTTRQIAEIMGRGGTSGIGVAVFDHGGLVVDGGHSTKEKKSFLPSSASRAKPAPMIARLDFPDWNVVLAIPDLKGFFGEREVNLFQKSCPVPLEDVREICHLILMKMLPAVVEADLDEFGKALKRIQELGFKKAEVEQYGELIKGCFDLADCIGMSSTGPTVYAITDSNAGGIERSLRDYFAEKGYECRTIVTKARNRGVEIEV	not soluble
MSLEEYNLIKPSHCKCQIVELEDIYRRDLNLLVALRVLIEESSVSKAATRLNLSQSAMSRVLGRLRDLLGDPLFTRQGQHLIPTQKALEIDRSLGEPLESLRQLLSPVEFDPQQCDQTFTIATTDYAMQTILPFALPRIYQEAPNVSFNFLPLQHDRLSDQLTYEGADLAICRPTGPVEPLRSEILGRVGVLCLLSKQHPLANQEMSLDDYLSHPHAMIAISDGVKALIEQALIDKPQRKMVLRAYHLEAALAIVDTLPIIITVPADLAYLVAERYDLVVKPLPFQFTPFDYSMIWHARCEHSPAQEWLRSVVREECSRLIAKRIEDMGLNEGHHHHHH	soluble
GSPGIPGSTSELEEDFAKILMLKEERIKELEKRLSEKEEEIQELKRKLHKCQSVLPVPSTHIGPRTT	soluble
MNIQITFTDSVRQGTSAKGNPYTFQEGFLHLEDKPHPLQCQFFVESVIPAGSYQVPYRINVNNGRPELAFDFKAMKRA	soluble
